Columns and labels:
SEC = molecular target: the molecule itself; assay: SEC
crystal structure = molecular target: the molecule itself; assay: crystal structure
N-MabR = molecular target: T1, N-MabR (Mycobacterium tuberculosis, UniProt P9WPH5 1-160); assay: EMSA; up to 20 uM protein; […], room temperature 30 min; ITC: 50 mM Tris pH 7.5, 150 mM NaCl, 20 C; conditions: protein: recombinant; tags: N-terminal 6xHis (pET28a); chain copies: 2; blunt
T1 sequence: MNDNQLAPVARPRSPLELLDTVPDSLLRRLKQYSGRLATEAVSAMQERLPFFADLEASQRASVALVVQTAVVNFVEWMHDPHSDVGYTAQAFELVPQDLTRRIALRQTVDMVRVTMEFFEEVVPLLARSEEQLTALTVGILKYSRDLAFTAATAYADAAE

C-MabR [1] = molecular target: T2, C-MabR (Mycobacterium tuberculosis, UniProt P9WPH5 161-414); assay: TSA (isothermal analysis); 46 C, apparent; […], room temperature 30 min; ITC: 50 mM Tris pH 7.5, 150 mM NaCl, 20 C; conditions: protein: recombinant; tags: N-terminal 6xHis (pET28a); chain copies: 2; blunt
T2 sequence: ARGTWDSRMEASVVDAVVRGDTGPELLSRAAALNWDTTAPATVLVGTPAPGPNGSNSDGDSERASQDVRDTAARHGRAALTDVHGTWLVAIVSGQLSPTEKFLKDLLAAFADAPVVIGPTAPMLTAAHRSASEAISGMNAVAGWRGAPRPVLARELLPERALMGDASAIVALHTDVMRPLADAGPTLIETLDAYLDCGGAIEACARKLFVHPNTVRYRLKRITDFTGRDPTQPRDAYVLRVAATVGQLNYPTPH

C-MabR [2] = molecular target: T2, C-MabR; assay: ITC; 20 C; 50 mM Tris pH 7.5, 150 mM NaCl; […]; […], room temperature 30 min; ITC: 50 mM Tris pH 7.5, 150 mM NaCl, 20 C; conditions: protein: recombinant; tags: N-terminal 6xHis (pET28a); chain copies: 2; blunt

B1: N-terminal domain of Mycobacterium tuberculosis MabR (Rv2242), residues 1-160 (domain or fragment)
chain: T1 sequence
- stoichiometry N (SEC): 2

B2: C-terminal domain of Mycobacterium tuberculosis MabR (Rv2242), residues 161-414 (domain or fragment)
chain: T2 sequence
- binding result (crystal structure): binds

B3: 23-bp FAS-II promoter dsDNA (dsDNA)
DNA 1: GTTTTGTTGGTTATATACAAAAA
DNA 2: TTTTTGTATATAACCAACAAAAC
- binding result (N-MabR): no binding
- Kd (C-MabR [1]): ~1000 nM
- Kd (C-MabR [2]): 4.3 µM

Source: PMC11617747 (Heliyon, 2024)
